One may read the Kd as the constant that tells how readily two partners part at equilibrium. What is called kon is the rate constant with which the complex forms. As a reminder, the koff is the rate constant with which the complex falls apart. A low value points to a long-lived complex.

Common to all, as to experiment: BLI
Holding throughout (conditions): both partners purified

The target of test [1] is T1, recombinant SARS-CoV-2 RBD, Gamma (P.1), K417T, E484K, N501Y (SARS-CoV-2, Gamma (P.1), K417T | E484K | N501Y).
T1 construct: source: bought: ACRO Biosystems

Test [2] addresses T2, recombinant SARS-CoV-2 RBD, Alpha (B.1.1.7), N501Y (SARS-CoV-2, Alpha (B.1.1.7) RBD N501Y, N501Y).
T2 construct: also called RBD_(N501Y); source: bought: ACRO Biosystems

For test [3], the target named is T3, recombinant SARS-CoV-2 RBD, Beta (B.1.351), K417N, E484K, N501Y (SARS-CoV-2, Beta (B.1.351), K417N | E484K | N501Y).
T3 construct: source: bought: ACRO Biosystems

Test [4] concerns the target T4, recombinant SARS-CoV-2 RBD, Delta (B.1.617.2), L452R, T478K (SARS-CoV-2, Delta (B.1.617.2), L452R | T478K).
T4 construct: also called Delta variant RBD; source: bought: ACRO Biosystems

For test [5], the target named is T5, SARS-CoV-2 RBD Alpha (B.1.1.7) N501Y (SARS-CoV-2, Alpha (B.1.1.7) RBD N501Y, N501Y).
T5 construct: also called RBD N501Y; source: bought: ACRO Biosystems

Test [6] concerns the target T6, SARS-CoV-2 RBD Delta (B.1.617.2) (SARS-CoV-2, Delta (B.1.617.2), L452R | T478K).
T6 construct: also called B.1.617.2/L452R, T478K; source: bought: ACRO Biosystems

The target of test [7] is T7, SARS-CoV-2 RBD Gamma (P.1) (SARS-CoV-2, Gamma (P.1), K417T | E484K | N501Y).
T7 construct: also called P.1/K417T, E484K, N501Y; source: bought: ACRO Biosystems

Test [8] concerns the target T8, SARS-CoV-2 RBD Beta (B.1.351) (SARS-CoV-2, Beta (B.1.351), K417N | E484K | N501Y).
T8 construct: also called B.1.351/K417N, E484K, N501Y; source: bought: ACRO Biosystems

B1: NIH-CoVnb-112 (VHH)
VHH: DVQLQESGGGLVQPGGSLRLSCAASGLTLDYYAIGWFRQAPGKEREGVSCISSSDGSTYYADSVKGRFTTSRDNAKNTVYLQMNSLKPEDTAVYYCAAVPSTYYSGTYYYTCHPGGMDYWGKGTQVTVSS
In the case of B1, the Kd in test [1] worked out at 4.16 nM; in test [2], 3 nM; in test [3], 4.28 nM; in test [4], 1.66 nM. In addition, the kon in test [4] was determined as 461000 M⁻¹ s⁻¹.

B2: NIH-CoVnb-112 (VHH)
VHH: B1 VHH
As to B2, the koff in test [5] was 0.000428 s⁻¹; in test [6], 0.000609 s⁻¹; in test [7], 0.000822 s⁻¹; in test [8] it was 0.000705 s⁻¹. In addition, the on-rate (kon) in test [5] is 153000 M⁻¹ s⁻¹; in test [7], 214000 M⁻¹ s⁻¹; in test [8], 201000 M⁻¹ s⁻¹.

Source of the values: paper PMC8928829 (mAbs, 2022).
